This note sets out measurements from the supplement of paper PMC10567573.

The chains are these.
B1: C10orf62 (parent)
chain: MLWVQRKRRRKETSECPSDKDKSP
B2: PPFIA4 (parent)
chain: VMTLPSDLRKHRRKLLSPVSREEN
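Also: lentivirally expressed fusions sorted by FACS into six bins by GFP to DsRed ratio, PSI derived from sequencing read proportions per bin multiplied by bin number.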

In one data set the parent is B1. Nature of the data set: protein stability index of a GFP-peptide fusion (GPS, HEK-293T) (PSI 1-6); higher = more stable. Conditions: c terminus: a fixed tail appended.
Consider MLWVQRKRRRKETSECPSDKIKSP [D21I], for which the protein stability index worked out at 2.32.

For MLWVQRKRRRKETSECPEDKDKSP [S18E], the protein stability index is 2.88. Still for that read-out and setting: the same measure for MLWVQRKRRRKETSECPHDKDKSP [S18H]: 2.85; for MLWVQRKRRRKETSECPGDKDKSP [S18G]: 3.58; for MLWVQRKRRRKETSECPADKDKSP [S18A]: 3.23. Regarding MLWVQRKRRRKETSECPKDKDKSP [S18K], the protein stability index amounted to 2.77. For MLWVQRKRRRKETSECPIDKDKSP [S18I], the protein stability index stood at 2.41.

Turning to MLWVQRKRRRKETSECPNDKDKSP [S18N], the protein stability index is 2.83. Still for that read-out and setting: the same measure for MLWVQRKRRRKETSECPRDKDKSP [S18R]: 3.21; for MLWVQRKRRRKETSECPTDKDKSP [S18T]: 2.75. Still for that read-out and setting: the same measure for MLWVQRKRRRKETSECPDDKDKSP [S18D]: 3.07. Consider MLWVQRKRRRKETSECPCDKDKSP [S18C], for which the protein stability index came out at 2.77. The same measure, in the same setting: next, MLWVQRKRRRKETSECPMDKDKSP [S18M]: 2.94; MLWVQRKRRRKETSECPWDKDKSP [S18W]: 2.63. With MLWVQRKRRRKETSECPYDKDKSP [S18Y], the protein stability index came to 2.43.

Consider MLWVQRKRRRKETSECPVDKDKSP [S18V], for which the protein stability index was 2.9. On the same count and under the same terms, next, MLWVQRKRRRKETSECPQDKDKSP [S18Q]: 3.42; MLWVQRKRRRKETSECPSDKDKSR [P24R]: 3.31; MLWVQRKRRRKETSECPSDKDKSM [P24M]: 2.46.

In the case of MLWVQRKRRRKETSECPSDKDKSY [P24Y], the protein stability index is 2.57.

On to MLWVQRKRRRKETSECPSDKDKSV [P24V], for which the protein stability index was found to be 2.95. With MLWVQRKRRRKETSECPSDKDKSW [P24W], the protein stability index worked out at 3.58. Still for that read-out and setting: the same measure for MLWVQRKRRRKETSECPSDKDKSA [P24A]: 3.72; for MLWVQRKRRRKETSECPSDKDKST [P24T]: 2.98. On to MLWVQRKRRRKETSECPSDKDKSK [P24K], for which the protein stability index worked out at 2.16. For the variant MLWVQRKRRRKETSECPSDKDKSL [P24L], the protein stability index was found to be 2.37. As for MLWVQRKRRRKETSECPSDKDKSS [P24S], the protein stability index was 3.11. As for MLWVQRKRRRKETSECPSDKDKSD [P24D], the protein stability index was 3.28.

Turning to MLWVQRKRRRKETSECPSDKDKSI [P24I], the protein stability index was found to be 2.35. In the case of MLWVQRKRRRKETSECPSDKDKSF [P24F], the protein stability index was found to be 2.46. In the case of MLWVQRKRRRKETSECPSDKDKSQ [P24Q], the protein stability index stood at 3.54. On the same count and under the same terms, next, MLWVQRKRRRKETSECPSDKDKSG [P24G]: 3.59.

MLWVQRKRRRKETSECPSDKDKSC [P24C]: the protein stability index stood at 3.2. On the same count and under the same terms, next, MLWVQRKRRRKETSECPSDKDKSN [P24N]: 2.8; MLWVQRKRRRKETSECPSDKDKSH [P24H]: 3.31.

Another data set covers variants of B2. The data set is described as above. Conditions: c terminus: a fixed tail appended.
VMWLPSDLRKHRRKLLSPVSREEN [T3W]: the protein stability index was determined as 2.26. The same measure, in the same setting: next, VMFLPSDLRKHRRKLLSPVSREEN [T3F]: 1.74. As to VMKLPSDLRKHRRKLLSPVSREEN [T3K], the protein stability index amounted to 2.66. On to VMRLPSDLRKHRRKLLSPVSREEN [T3R], for which the protein stability index was determined as 3.07.

As for VMGLPSDLRKHRRKLLSPVSREEN [T3G], the protein stability index was 3.99. As to VMNLPSDLRKHRRKLLSPVSREEN [T3N], the protein stability index amounted to 2.82. As to VMVLPSDLRKHRRKLLSPVSREEN [T3V], the protein stability index turned out to be 2.95. With VMMLPSDLRKHRRKLLSPVSREEN [T3M], the protein stability index stood at 2.31.

Regarding VMHLPSDLRKHRRKLLSPVSREEN [T3H], the protein stability index was determined as 3.52. On the same count and under the same terms, the same measure for VMALPSDLRKHRRKLLSPVSREEN [T3A]: 3.92. In the case of VMYLPSDLRKHRRKLLSPVSREEN [T3Y], the protein stability index is 2.5. Turning to VMLLPSDLRKHRRKLLSPVSREEN [T3L], the protein stability index is 2.32. Turning to VMCLPSDLRKHRRKLLSPVSREEN [T3C], the protein stability index was 3.56.

For the variant VMELPSDLRKHRRKLLSPVSREEN [T3E], the protein stability index came out at 3.51.

With VMILPSDLRKHRRKLLSPVSREEN [T3I], the protein stability index is 2.65.

As to VMPLPSDLRKHRRKLLSPVSREEN [T3P], the protein stability index was determined as 3.51. Consider VMDLPSDLRKHRRKLLSPVSREEN [T3D], for which the protein stability index is 4.12. Consider VMQLPSDLRKHRRKLLSPVSREEN [T3Q], for which the protein stability index worked out at 2.85. VMSLPSDLRKHRRKLLSPVSREEN [T3S]: the protein stability index came out at 3.71. On to VMTAPSDLRKHRRKLLSPVSREEN [L4A], for which the protein stability index was 4.27. On to VMTCPSDLRKHRRKLLSPVSREEN [L4C], for which the protein stability index was found to be 4.31. Regarding HMTLPSDLRKHRRKLLSPVSREEN [V1H], the protein stability index came out at 4.25.

Turning to KMTLPSDLRKHRRKLLSPVSREEN [V1K], the protein stability index was 3.81.

For TMTLPSDLRKHRRKLLSPVSREEN [V1T], the protein stability index is 4.25. For the variant EMTLPSDLRKHRRKLLSPVSREEN [V1E], the protein stability index is 4.2.

For DMTLPSDLRKHRRKLLSPVSREEN [V1D], the protein stability index was 4.35.

Regarding SMTLPSDLRKHRRKLLSPVSREEN [V1S], the protein stability index was determined as 4.27.

Consider IMTLPSDLRKHRRKLLSPVSREEN [V1I], for which the protein stability index came out at 3.55. For LMTLPSDLRKHRRKLLSPVSREEN [V1L], the protein stability index is 3.27. For the variant QMTLPSDLRKHRRKLLSPVSREEN [V1Q], the protein stability index was 4.35. On to PMTLPSDLRKHRRKLLSPVSREEN [V1P], for which the protein stability index stood at 4.27. For the variant MMTLPSDLRKHRRKLLSPVSREEN [V1M], the protein stability index was found to be 3.89. GMTLPSDLRKHRRKLLSPVSREEN [V1G]: the protein stability index stood at 3.31. For the variant YMTLPSDLRKHRRKLLSPVSREEN [V1Y], the protein stability index is 3.21. Take FMTLPSDLRKHRRKLLSPVSREEN [V1F]: the protein stability index came out at 2.83. The same measure, in the same setting: the same measure for AMTLPSDLRKHRRKLLSPVSREEN [V1A]: 3.93; for CMTLPSDLRKHRRKLLSPVSREEN [V1C]: 3.81. In the case of NMTLPSDLRKHRRKLLSPVSREEN [V1N], the protein stability index came out at 3.62.

As for RMTLPSDLRKHRRKLLSPVSREEN [V1R], the protein stability index came out at 4.59.

Take WMTLPSDLRKHRRKLLSPVSREEN [V1W]: the protein stability index was determined as 2.66. For the variant VITLPSDLRKHRRKLLSPVSREEN [M2I], the protein stability index is 3.12. Take VGTLPSDLRKHRRKLLSPVSREEN [M2G]: the protein stability index came out at 4.17. Regarding VLTLPSDLRKHRRKLLSPVSREEN [M2L], the protein stability index was found to be 3.48.

With VCTLPSDLRKHRRKLLSPVSREEN [M2C], the protein stability index was determined as 3.65. With VNTLPSDLRKHRRKLLSPVSREEN [M2N], the protein stability index stood at 3.84.

Consider VYTLPSDLRKHRRKLLSPVSREEN [M2Y], for which the protein stability index is 3.15. With VRTLPSDLRKHRRKLLSPVSREEN [M2R], the protein stability index stood at 4.04. In the case of VDTLPSDLRKHRRKLLSPVSREEN [M2D], the protein stability index was determined as 4.71. On the same count and under the same terms, next, VPTLPSDLRKHRRKLLSPVSREEN [M2P]: 3.93; VKTLPSDLRKHRRKLLSPVSREEN [M2K]: 3.82. Turning to VFTLPSDLRKHRRKLLSPVSREEN [M2F], the protein stability index worked out at 3.19. Turning to VTTLPSDLRKHRRKLLSPVSREEN [M2T], the protein stability index is 4.46. Still for that read-out and setting: the same measure for VQTLPSDLRKHRRKLLSPVSREEN [M2Q]: 3.06; for VETLPSDLRKHRRKLLSPVSREEN [M2E]: 4.54.

For VWTLPSDLRKHRRKLLSPVSREEN [M2W], the protein stability index was determined as 3.72.

Turning to VVTLPSDLRKHRRKLLSPVSREEN [M2V], the protein stability index was determined as 3.46.

Regarding VHTLPSDLRKHRRKLLSPVSREEN [M2H], the protein stability index came to 4.02. In the case of VSTLPSDLRKHRRKLLSPVSREEN [M2S], the protein stability index is 3.69. The same measure, in the same setting: next, VATLPSDLRKHRRKLLSPVSREEN [M2A]: 4.31.
